Laboratory results taken from PMC5432575, “CRP Regulates D-Lactate Oxidation in Shewanella oneidensis MR-1”.

T1: CRP (N-his-CRP) (Shewanella oneidensis MR-1) (UniProt Q8EJ49)
T1 sequence: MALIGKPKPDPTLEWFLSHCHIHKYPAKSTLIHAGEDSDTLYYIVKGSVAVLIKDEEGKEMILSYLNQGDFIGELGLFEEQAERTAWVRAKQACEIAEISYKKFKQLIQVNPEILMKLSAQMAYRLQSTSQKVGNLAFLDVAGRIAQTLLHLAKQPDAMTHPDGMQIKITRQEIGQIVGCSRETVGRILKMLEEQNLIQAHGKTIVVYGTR


Assays:
[1] = molecular target: T1, CRP (N-his-CRP) (Shewanella oneidensis MR-1); experiment: EMSA; details: 20 ul: 2 nM Cy3-labeled probe, 50 ng N-his-CRP, 50 uM cAMP, buffer as in Kasai et al. 2015 (salt, pH, temperature not given)
[2] = molecular target: CRP (N-his-CRP) (Shewanella oneidensis MR-1, UniProt Q8EJ49 1-211); experiment: EMSA; 50 uM cAMP; EMSA, 20 ul: 2 nM Cy3-labeled probe, 50 ng N-his-CRP, 50 uM cAMP; buffer as in Kasai et al. 2015 (salt, pH, temperature not given); details: protein: recombinant; tags: N-terminal His tag; chain copies: 2; label: 5'-Cy3 (forward strand); blunt

Molecule	binding [1]	binding result [2]
GGATCAGTTAATTGCAATACTGATAGCTAATTTAATGAAAATTTCCTTTTTTATAACTATCTGACATGTTTTTTAAAAAAATATTTGAATGGAGTTATATATACCCCACTCTTTAAGTGACA (double strand) [PBlldP1]	no binding	–
GGATCAGTTAATTGCAATACTGATAGCTAATTTAATGAAAATTTCCTTTTTTATAACTATCTGACATGTTTTTTAAAAAAATATTTGAATGGAGTTATATATACCCCACTCTTTAAGTGACACCGATCACAGTTAAGAAAATCCCATGAGAGAAGCCTCCCGCAGCACTGTAAATTAGCATT (double strand) [PBlldP2]	binds	–
PBlldP3m (dsDNA) DNA 1: ATATACCCCACTCTTTACCCCCCACCGAGGGGGGTTAAGAAAATCCCATG DNA 2: CATGGGATTTTCTTAACCCCCCTCGGTGGGGGGTAAAGAGTGGGGTATAT	–	no binding
PBlldP3 (dsDNA) DNA 1: ATATACCCCACTCTTTAAGTGACACCGATCACAGTTAAGAAAATCCCATG DNA 2: CATGGGATTTTCTTAACTGTGATCGGTGTCACTTAAAGAGTGGGGTATAT	–	binds
